The results in this text go back to patent publication US10570150B2, “6,7-trans cephalosporin-based probes for detecting bacteria expressing a metallo-beta-lactamase” (priority 2014, dated 2020).

The target in one series is NDM-1 (Klebsiella pneumoniae, UniProt C7C422). The class given is biochemical, Escherichia coli. The following applies: probe 10 μM, 2 h; for fluorescence enhancement: NDM-1 1 to 200 fmols, 25 μL 1×PBS pH 7.4, room temperature.
The target in series [1] is T1, KPC-3 (Klebsiella pneumoniae, UniProt Q9F663, H272Y). The following applies: from Lineweaver-Burk plots.
The next series addresses IMP-1 (Serratia marcescens, UniProt P52699). The series is classed as biochemical, Escherichia coli. The following applies: probe 10 μM, 2 h; for fluorescence enhancement: IMP-1 1 to 200 fmols, 25 μL 1×PBS pH 7.4, room temperature.
In series [2] the test system is VIM-27. Kind of series: Fluorescence of probes after incubation with recombinant VIM-27. The class given is biochemical, Klebsiella pneumoniae. The following applies: probe 10 μM, 2 h; for fluorescence enhancement: VIM-27 1 to 200 fmols, 25 μL 1×PBS pH 7.4, room temperature. Here is the method:
The fluorescence of the probes was measured before and after enzyme treatment using enzyme concentrations in the range of about 1 to about 200 fmols. […] CDC-1, a previously reported non-specific probe for β-lactamases employed as a positive control, as described by Xie et al., (2012) J. Nat.

Series [3] has as its target T1, KPC-3. The series is classed as biochemical. Particulars: KPC-3; probe 10 μM, 2 h.
The test system of series [4] is VIM-27. Nature of the series: Kinetic parameters of probes with recombinant VIM-27 (Lineweaver-Burk plots). Particulars: from Lineweaver-Burk plots.
Series [5] in a line: Spontaneous hydrolysis of probe in PBS buffer. Particulars: [S]0=20 μM. The class given is physicochemical. The source says:
FIGS. 14A-14G illustrate the spontaneous hydrolysis in buffer of a probe according to the disclosure. FIG. 14A is a schema illustrating the spontaneous hydrolysis of a probe of the disclosure in PBS buffer to release umbelliferone and thereby generate a fluorescent signal. […] Initial concentration of probe, [P]: […] Error bars indicate the standard deviations of three replicate experiments.

The test system of series [6] is [H][C@]1(OC(C)C)C(=O)N2C(C(=O)O)=C(COc3ccc4ccc(=O)oc4c3)CS[C@@]21[H]. Nature of the series: purified protein, by the assay type. The following applies: from Lineweaver-Burk plots.
The test system of series [7] is [H][C@]1(OCC)C(=O)N2C(C(=O)O)=C(COc3ccc4ccc(=O)oc4c3)CS[C@@]21[H]. Kind of series: purified protein, by the assay type. Particulars: from Lineweaver-Burk plots.
The test system of series [8] is [H][C@]1(OC)C(=O)N2C(C(=O)O)=C(COc3ccc4ccc(=O)oc4c3)CS[C@@]21[H]. Kind of series: purified protein, by the assay type. The following applies: from Lineweaver-Burk plots.
Series [9] deals with [H][C@]1(OC(C)(C)C)C(=O)N2C(C(=O)O)=C(COc3ccc4ccc(=O)oc4c3)CS[C@@]21[H]. Kind of series: purified protein, by the assay type. The following applies: from Lineweaver-Burk plots.
In series [10] the test system is [H][C@]1(OCc2ccccc2)C(=O)N2C(C(=O)O)=C(COc3ccc4ccc(=O)oc4c3)CS[C@@]21[H]. Nature of the series: purified protein, by the assay type. Particulars: from Lineweaver-Burk plots.
Series [11] deals with [H][C@]1(OS(=O)(=O)c2ccc(C)cc2)C(=O)N2C(C(=O)O)=C(COc3ccc4ccc(=O)oc4c3)CS[C@@]21[H]. Kind of series: purified protein, by the assay type. Particulars: from Lineweaver-Burk plots.

Where only a bound is given, the exact number is not on record here.

`CC(C)O[C@H]1C(=O)N2C(C(=O)O)=C(COc3ccc4ccc(=O)oc4c3)CS[C@H]12` [(s)-CC-3, (6R,7S)-7-isopropoxy-8-oxo-3-(((2-oxo-2H-chromen-7-yl)oxy)methyl)-5-thia-1-azabicyclo[4.2.0]oct-2-ene-2-carboxylic Acid]: the fluorescence enhancement result on NDM-1, at IMP-1 and in the series on VIM-27 [2] was “fluorescence enhancement” each time. The values for the Michaelis constant (Km) on KPC-3 [1] and in the series with VIM-27 [4] were 250 ± 235 µM and 61.3 ± 8.8 µM, respectively. Moreover, the values for the catalytic constant (kcat) on KPC-3 [1] and with VIM-27 [4] were 0.2 ± 0.17 s⁻¹ and 0.5 ± 0.04 s⁻¹, respectively. Further, the “amount of enzyme giving detectable fluorescence” value at KPC-3 [3] was 200 fmol. This compound also came in with a Spontaneous hydrolysis rate in series [5] of 4.8e-07 s⁻¹.
Take `Cc1ccc(S(=O)(=O)O[C@H]2C(=O)N3C(C(=O)O)=C(COc4ccc5ccc(=O)oc5c4)CS[C@H]23)cc1` [(s)-CC-6, (6R,7S)-8-oxo-3-(((2-oxo-2H-chromen-7-yl)oxy)methyl)-7-(tosyloxy)-5-thia-1-azabicyclo[4.2.0]oct-2-ene-2-carboxylic Acid]: the fluorescence enhancement result at NDM-1, on IMP-1 and with VIM-27 [2] was “fluorescence enhancement” throughout. Moreover, the “amount of enzyme giving detectable fluorescence” value at NDM-1 (NDM-1) is no more than 1.0 fmol; on IMP-1 (IMP-1) it was no more than 1.0 fmol; with VIM-27 [2] (VIM-27), no more than 1.0 fmol; at KPC-3 [3], 200 fmol. In addition, the Km at KPC-3 [1] was 18.7 ± 7.8 µM; in the series on VIM-27 [4] it was 14.1 ± 1.2 µM. Also, the kcat was 0.3 ± 0.05 s⁻¹ at KPC-3 [1] and 3.9 ± 0.1 s⁻¹ in the series on VIM-27 [4]. For the same compound, in [5], the Spontaneous hydrolysis rate was 2.6e-07 s⁻¹.
For the compound IMP-1 (Serratia marcescens), the Km is 3.2 ± 0.07 µM in [6] (other: IMP-1); 12.9 ± 1.0 µM in series [7] (other: IMP-1); 7.8 ± 0.2 µM in series [8] (other: IMP-1); 9.4 ± 1.3 µM in [9] (other: IMP-1); 3.6 ± 0.1 µM in series [10] (other: IMP-1); 3.4 ± 0.4 µM in series [11] (other: IMP-1). The catalytic constant (kcat) in [6] (other: IMP-1) amounted to 8.0 ± 0.04 s⁻¹; in [7] (other: IMP-1), 16.6 ± 0.1 s⁻¹; in series [8] (other: IMP-1) it was 12.2 ± 0.1 s⁻¹; in series [9] (other: IMP-1), 2.1 ± 0.01 s⁻¹; in [10] (other: IMP-1), 4.2 ± 0.03 s⁻¹; in series [11] (other: IMP-1), 2.2 ± 0.02 s⁻¹. Moreover, the kcat/Km in series [6] (other: IMP-1) is given as 2.5 × 10^6 s^−1M^−1; in [7] (other: IMP-1) it was 1.3 × 10^6 s^−1M^−1; in series [8] (other: IMP-1), 1.6 × 10^6 s^−1M^−1; in [9] (other: IMP-1), 2.2 × 10^5 s^−1M^−1; in series [10] (other: IMP-1), 1.2 × 10^6 s^−1M^−1; in [11] (other: IMP-1), 6.6 × 10^5 s^−1M^−1.
As for NDM-1 (Klebsiella pneumoniae), the Michaelis constant (Km) came to 6.0 ± 3.5 µM in [6] (other: NDM-1); 14.9 ± 2.7 µM in [7] (other: NDM-1); 12.0 ± 0.7 µM in series [8] (other: NDM-1); 58.6 ± 16.0 µM in [9] (other: NDM-1); 26.7 ± 0.2 µM in series [10] (other: NDM-1); 4.7 ± 0.3 µM in [11] (other: NDM-1). Also, the kcat turned out to be 0.1 ± 0.01 s⁻¹ in series [6] (other: NDM-1); 0.3 ± 0.01 s⁻¹ in [7] (other: NDM-1); 0.2 ± 0.02 s⁻¹ in series [8] (other: NDM-1); 0.3 ± 0.04 s⁻¹ in [9] (other: NDM-1); 0.3 ± 0.0 s⁻¹ in series [10] (other: NDM-1); 1.9 ± 0.06 s⁻¹ in [11] (other: NDM-1). The kcat/Km was 2.0 × 10^4 s^−1M^−1 in [6] (other: NDM-1); 1.7 × 10^4 s^−1M^−1 in series [7] (other: NDM-1); 2.0 × 10^4 s^−1M^−1 in [8] (other: NDM-1); 5.1 × 10^3 s^−1M^−1 in series [9] (other: NDM-1); 1.0 × 10^4 s^−1M^−1 in series [10] (other: NDM-1); 4.0 × 10^5 s^−1M^−1 in [11] (other: NDM-1).
